Residue numbers refer to the chain shown, from its start.
T1: B型肉毒神经毒素 (botulinum neurotoxin type B) (Clostridium botulinum, UniProt P10844 2-1291)
T1 sequence: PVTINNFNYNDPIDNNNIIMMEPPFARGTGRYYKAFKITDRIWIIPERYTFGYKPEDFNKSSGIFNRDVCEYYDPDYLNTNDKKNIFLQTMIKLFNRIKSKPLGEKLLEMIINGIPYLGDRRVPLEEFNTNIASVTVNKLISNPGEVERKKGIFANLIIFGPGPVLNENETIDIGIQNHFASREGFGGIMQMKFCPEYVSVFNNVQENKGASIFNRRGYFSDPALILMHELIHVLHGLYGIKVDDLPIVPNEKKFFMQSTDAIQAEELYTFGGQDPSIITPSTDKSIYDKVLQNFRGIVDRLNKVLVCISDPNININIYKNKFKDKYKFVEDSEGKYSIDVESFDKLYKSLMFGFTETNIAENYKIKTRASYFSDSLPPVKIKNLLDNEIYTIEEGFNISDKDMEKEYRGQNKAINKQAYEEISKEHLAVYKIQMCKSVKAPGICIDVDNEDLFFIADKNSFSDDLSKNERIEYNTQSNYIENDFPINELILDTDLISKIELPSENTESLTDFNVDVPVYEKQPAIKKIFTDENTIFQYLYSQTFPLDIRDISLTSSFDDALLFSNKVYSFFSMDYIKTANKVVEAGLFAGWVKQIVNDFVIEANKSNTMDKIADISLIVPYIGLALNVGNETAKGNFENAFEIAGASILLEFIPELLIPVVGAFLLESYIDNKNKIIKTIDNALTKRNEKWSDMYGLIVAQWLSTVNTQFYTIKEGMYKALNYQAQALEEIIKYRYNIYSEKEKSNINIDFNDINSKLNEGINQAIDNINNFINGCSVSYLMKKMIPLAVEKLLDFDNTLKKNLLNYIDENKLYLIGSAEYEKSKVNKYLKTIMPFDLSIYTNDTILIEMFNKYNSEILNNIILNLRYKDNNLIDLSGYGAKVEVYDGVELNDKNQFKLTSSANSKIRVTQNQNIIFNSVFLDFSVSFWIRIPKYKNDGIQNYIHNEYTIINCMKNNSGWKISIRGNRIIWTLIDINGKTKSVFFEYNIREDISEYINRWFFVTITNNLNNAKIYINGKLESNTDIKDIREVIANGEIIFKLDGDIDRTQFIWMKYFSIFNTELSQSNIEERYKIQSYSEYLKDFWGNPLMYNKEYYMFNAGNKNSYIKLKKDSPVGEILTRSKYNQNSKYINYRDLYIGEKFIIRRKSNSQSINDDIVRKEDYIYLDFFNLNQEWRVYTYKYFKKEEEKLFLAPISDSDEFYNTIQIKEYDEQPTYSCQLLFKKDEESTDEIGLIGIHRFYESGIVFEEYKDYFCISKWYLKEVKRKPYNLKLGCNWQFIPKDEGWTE

T2: F型肉毒神经毒素 (botulinum neurotoxin type F) (Clostridium botulinum, UniProt P30996 1-1274)
T2 sequence: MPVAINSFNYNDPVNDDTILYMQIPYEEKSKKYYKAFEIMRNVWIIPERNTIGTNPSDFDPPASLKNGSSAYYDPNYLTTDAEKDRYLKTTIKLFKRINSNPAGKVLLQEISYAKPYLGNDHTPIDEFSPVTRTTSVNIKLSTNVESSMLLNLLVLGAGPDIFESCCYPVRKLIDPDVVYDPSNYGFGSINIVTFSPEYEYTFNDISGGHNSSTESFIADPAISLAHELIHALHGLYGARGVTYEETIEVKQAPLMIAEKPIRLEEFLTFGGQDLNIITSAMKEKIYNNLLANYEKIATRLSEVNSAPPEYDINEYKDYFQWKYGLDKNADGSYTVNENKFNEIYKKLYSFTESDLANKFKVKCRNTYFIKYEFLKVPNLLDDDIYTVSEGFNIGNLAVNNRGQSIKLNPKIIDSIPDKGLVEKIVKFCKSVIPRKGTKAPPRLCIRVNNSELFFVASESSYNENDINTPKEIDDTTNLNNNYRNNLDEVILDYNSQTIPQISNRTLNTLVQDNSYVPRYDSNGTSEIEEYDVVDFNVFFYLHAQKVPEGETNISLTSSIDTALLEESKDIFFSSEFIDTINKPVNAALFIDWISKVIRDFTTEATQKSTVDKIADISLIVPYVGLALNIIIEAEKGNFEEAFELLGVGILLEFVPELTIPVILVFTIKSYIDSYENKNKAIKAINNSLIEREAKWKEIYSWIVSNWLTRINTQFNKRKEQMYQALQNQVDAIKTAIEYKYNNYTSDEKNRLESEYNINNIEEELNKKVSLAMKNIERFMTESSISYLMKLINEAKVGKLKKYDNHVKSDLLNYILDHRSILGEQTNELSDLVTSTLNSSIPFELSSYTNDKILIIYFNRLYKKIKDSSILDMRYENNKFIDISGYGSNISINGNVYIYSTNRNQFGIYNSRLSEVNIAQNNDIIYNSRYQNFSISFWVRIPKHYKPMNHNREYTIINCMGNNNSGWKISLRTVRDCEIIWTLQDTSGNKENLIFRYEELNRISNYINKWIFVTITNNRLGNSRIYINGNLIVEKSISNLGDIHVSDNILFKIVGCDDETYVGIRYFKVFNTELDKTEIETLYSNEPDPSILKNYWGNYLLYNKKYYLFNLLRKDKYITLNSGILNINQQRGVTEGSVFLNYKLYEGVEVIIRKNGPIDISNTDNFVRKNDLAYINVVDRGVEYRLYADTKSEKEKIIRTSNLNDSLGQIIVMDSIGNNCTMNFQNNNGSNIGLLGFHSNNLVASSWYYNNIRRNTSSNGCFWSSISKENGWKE

T3: E型肉毒神经毒素 (botulinum neurotoxin type E) (Clostridium botulinum, UniProt Q00496 2-1251)
T3 sequence: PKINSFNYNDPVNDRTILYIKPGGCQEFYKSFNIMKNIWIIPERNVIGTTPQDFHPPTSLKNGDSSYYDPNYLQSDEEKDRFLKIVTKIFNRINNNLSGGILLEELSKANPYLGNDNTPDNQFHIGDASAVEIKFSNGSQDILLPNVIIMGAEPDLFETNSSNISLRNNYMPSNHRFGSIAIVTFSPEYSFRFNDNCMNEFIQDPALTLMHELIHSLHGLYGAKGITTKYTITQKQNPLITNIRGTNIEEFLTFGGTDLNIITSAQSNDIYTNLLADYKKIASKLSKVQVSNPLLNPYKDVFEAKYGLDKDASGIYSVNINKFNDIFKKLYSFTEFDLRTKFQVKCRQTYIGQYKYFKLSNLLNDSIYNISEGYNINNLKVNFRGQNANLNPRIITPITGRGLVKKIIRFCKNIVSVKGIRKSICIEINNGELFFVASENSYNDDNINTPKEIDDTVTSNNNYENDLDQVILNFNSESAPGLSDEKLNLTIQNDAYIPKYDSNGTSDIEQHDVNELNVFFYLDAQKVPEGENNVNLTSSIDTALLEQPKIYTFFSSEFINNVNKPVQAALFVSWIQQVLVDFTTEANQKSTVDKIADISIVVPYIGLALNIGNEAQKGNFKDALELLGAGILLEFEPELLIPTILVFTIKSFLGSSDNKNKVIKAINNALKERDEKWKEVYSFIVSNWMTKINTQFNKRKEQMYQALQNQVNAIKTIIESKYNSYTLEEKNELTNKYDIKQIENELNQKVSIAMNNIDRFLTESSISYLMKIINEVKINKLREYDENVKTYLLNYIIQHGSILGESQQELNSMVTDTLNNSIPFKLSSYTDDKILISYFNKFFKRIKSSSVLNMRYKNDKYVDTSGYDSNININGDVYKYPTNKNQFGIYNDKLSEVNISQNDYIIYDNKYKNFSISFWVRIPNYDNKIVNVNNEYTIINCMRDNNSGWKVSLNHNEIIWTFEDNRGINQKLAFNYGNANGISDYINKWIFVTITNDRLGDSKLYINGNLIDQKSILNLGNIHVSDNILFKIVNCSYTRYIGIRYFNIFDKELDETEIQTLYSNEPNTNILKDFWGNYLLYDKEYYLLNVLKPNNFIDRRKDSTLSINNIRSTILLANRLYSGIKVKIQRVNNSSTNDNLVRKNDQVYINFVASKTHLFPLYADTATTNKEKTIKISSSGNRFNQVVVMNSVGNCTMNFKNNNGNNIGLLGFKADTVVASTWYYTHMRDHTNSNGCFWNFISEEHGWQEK

B1: 人源化抗B型肉毒神经毒素中和性抗体HuBNbP8 (recombinant MBP-scFv fusion protein expressed from pMAL-HuFv) (scFv)
scFv: AQVQLVQSGAEVVKPGASVKLSCKASGYTFTSYYIYWVKQRPGQGLGWIGEIYPSNGGTNFNEKFKTKATLTVDKSASTAYMQLSSLTSEDSTVYYCARMGNYGGSYFDYWGQGTTLTVSSGGGGSGGGGSGGGGSDIVLTQSPATLSVTPGESVSLSCGASQSISNNLHWYQQKSHESPRLLIKFASQSISGIPSKFSGSGSGTDFSLSINSLETEDFGVFFCQQSDTWPYTFGGGTKLEIKRAAAE
B2: 鼠源抗B型肉毒神经毒素中和性抗体MuBNbP8 (recombinant MBP-scFv fusion protein expressed from pMAL-MuFv) (scFv)
scFv: B1 scFv with Q4K, V6Q, V12L, A77S, E153D

Assays:
[1] = biological target: T1, B型肉毒神经毒素 (botulinum neurotoxin type B); assay: SPR (Biacore 3000, CM5 chip), […]
[2] = biological target: T2, F型肉毒神经毒素 (botulinum neurotoxin type F); assay: ELISA
[3] = biological target: A型肉毒神经毒素 (botulinum neurotoxin type A) (Clostridium botulinum, UniProt P0DPI0 2-1296); assay: ELISA
[4] = biological target: T3, E型肉毒神经毒素 (botulinum neurotoxin type E); assay: ELISA

A型肉毒神经毒素 (botulinum neurotoxin type A), sequence (P0DPI0 2-1296 limits assumed): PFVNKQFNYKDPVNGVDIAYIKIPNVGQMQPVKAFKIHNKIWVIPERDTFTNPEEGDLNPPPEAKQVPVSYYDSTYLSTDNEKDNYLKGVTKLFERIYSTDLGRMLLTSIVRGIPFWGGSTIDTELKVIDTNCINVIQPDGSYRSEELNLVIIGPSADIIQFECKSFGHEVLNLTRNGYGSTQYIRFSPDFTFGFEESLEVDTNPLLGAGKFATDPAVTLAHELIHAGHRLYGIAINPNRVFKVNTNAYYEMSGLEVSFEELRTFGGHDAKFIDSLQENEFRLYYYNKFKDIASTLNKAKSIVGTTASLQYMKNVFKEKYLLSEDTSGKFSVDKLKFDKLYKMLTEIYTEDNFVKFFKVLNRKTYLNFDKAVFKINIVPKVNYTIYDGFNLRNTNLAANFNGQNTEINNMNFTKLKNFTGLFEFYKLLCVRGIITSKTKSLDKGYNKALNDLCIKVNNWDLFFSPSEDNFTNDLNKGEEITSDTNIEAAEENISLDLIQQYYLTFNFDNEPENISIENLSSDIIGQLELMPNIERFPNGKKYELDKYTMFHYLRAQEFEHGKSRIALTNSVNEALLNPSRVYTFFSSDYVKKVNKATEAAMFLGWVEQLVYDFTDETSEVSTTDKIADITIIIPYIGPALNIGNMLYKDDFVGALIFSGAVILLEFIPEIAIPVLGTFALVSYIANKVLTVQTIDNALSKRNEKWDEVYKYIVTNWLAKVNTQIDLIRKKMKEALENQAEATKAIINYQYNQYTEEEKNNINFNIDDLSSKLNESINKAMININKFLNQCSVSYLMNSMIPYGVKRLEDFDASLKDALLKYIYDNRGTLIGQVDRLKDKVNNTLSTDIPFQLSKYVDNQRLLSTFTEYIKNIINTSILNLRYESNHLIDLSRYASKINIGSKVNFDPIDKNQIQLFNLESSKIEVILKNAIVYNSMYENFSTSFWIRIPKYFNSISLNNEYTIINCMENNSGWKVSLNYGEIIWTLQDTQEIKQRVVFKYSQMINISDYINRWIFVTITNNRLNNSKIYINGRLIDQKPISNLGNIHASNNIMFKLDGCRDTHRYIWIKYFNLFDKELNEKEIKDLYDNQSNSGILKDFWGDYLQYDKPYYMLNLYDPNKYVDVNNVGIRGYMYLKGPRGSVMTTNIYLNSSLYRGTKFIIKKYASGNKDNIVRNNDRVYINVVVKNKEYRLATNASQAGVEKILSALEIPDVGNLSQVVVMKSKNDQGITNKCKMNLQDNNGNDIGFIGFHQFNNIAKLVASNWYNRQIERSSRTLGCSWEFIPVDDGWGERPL

Row | Binder | Kd [1] | binding result [2] | binding result [3] | binding result [4]
1 | B1 | 1.34 nM | no binding | no binding | no binding
2 | B2 | – | no binding | no binding | no binding
